Source: US20160068860A1, “TRANSGENIC PLANTS” (CONSEJO SUPERIOR DE INVESTIGACIONES CIENTIFICAS (CSIC), priority 2013, published 2016)

Tests used:
[1] = tested on: Arabidopsis thaliana plants; test: Root growth assay of OE lines on ABA; assay type: in vivo; details: 10 μM ABA, 10 d after transfer
Protocol: Seedlings were grown on vertically oriented MS plates for 4 to 5 days. Afterwards, 20 plants were transferred to new MS plates lacking or supplemented with the indicated concentrations of ABA. The plates were scanned on a flatbed scanner after 10-d to produce image files suitable for quantitative analysis of root growth using the NIH software ImageJ v1.37. As an indicator of shoot growth, the maximum rosette radius was measured.

[2] = tested on: Arabidopsis thaliana plants; test: Whole-rosette stomatal conductance and transpiration measurements; assay type: in vivo; details: basal conditions; for stomatal conductance (Gst) and transpiration versus non-transformed Col: OE plants
Protocol: The Arabidopsis whole-rosette gas exchange measurement device, plant growth practice and custom written program to calculate transpiration and Gst for water vapour have been described previously (Kollist et al. 2007; Vahisalu et al., 2008). For gas-exchange experiments, 25-28-d-old plants (rosette area 6-18 cm2) were used. Until measurements, plants were grown in growth chambers (AR-66LX and AR-22L, Percival Scientific, IA, USA) at 12/12 photoperiod, 23/18° C. temperature, air relative humidity of 70-80% and 150 μmol m-2 s-1 light. During gas exchange measurements, temperature, air relatively humidity, photoperiod and light in the cuvettes were kept as similar as possible to the
values in growth chambers. Photographs of plants were taken before and after the experiment and rosette leaf area was calculated using the NIH software ImageJ 1.37v. Leaf area values for the intermediary experimental period were calculated using linear regression between starting and final leaf area.

[3] = tested on: Arabidopsis thaliana plants; test: Stomatal aperture by whole leaf imaging; assay type: in vivo; details: OE plants; steady-state conditions
Protocol: 2-3 weeks-old seedlings grown in MS plates were used for water-loss assays. Four seedlings per genotype with similar growth, three independent experiments, were submitted to the drying atmosphere of a flow laminar hood. Kinetic analysis of waterloss was performed and represented as the percentage of initial fresh weight loss at each scored time point. Stomatal aperture measurements were done in leaves of 5-week-old plants grown under greenhouse conditions using whole leaf imaging (Chitrakar and Melotto, 2010). Staining of whole leaves with propidium iodide was conducted and the aperture of 30-40 stomata (ratio width/length, two independent experiments) was measured using a Leica TCS-SL confocal microscope.

[4] = tested on: Arabidopsis thaliana plants; test: Dehydration treatment of seedlings in laminar flow hood; assay type: in vivo; details: OE plants; 15-d-old seedlings, 12 h of dehydration, scored 3-d afterwards
Protocol: 2-weeks-old seedlings grown in MS plates were used for these experiments. Twenty seedlings per genotype (two independent experiments) were submitted to the drying atmosphere of a flow laminar hood for 12 hours (25° C.±1° C., 25%±2% relative humidity), then rehydrated with 25 ml of water. Survival percentage was scored 3 days after rehydration by counting the percentage of plants that had at least four green leaves.

[5] = tested on: Barley plants (cv. Golden Promise); assay type: in vivo, Hordeum vulgare; details: for vegetative growth under non-stress conditions: in vivo; for drought tolerance compared to non-transformed Golden promise wt plants / fresh weight/leaf after drought / survival and vegetative growth after drought and rewatering / weight/plant after drought and rewatering: transgenic barley; for drought tolerance compared to non-transformed Golden promise wt plants: 12-d period of drought; for fresh weight/leaf after drought / survival and vegetative growth after drought and rewatering / weight/plant after drought and rewatering: compared to non-transformed plants
Excerpt: Transgenic barley (cv. Golden Promise) expressing either Arabidopsis PYL4^A194T or PYL4^H82R V97A open reading frame driven by the Ubiquitin promoter from the pBract214 vector was generated via Agrobacterium-mediated transformation (Bartlett et al. 2008).
The nucleotide sequence encoding either PYL4^A194T or PYL4^H82R V97A open reading frame was recombined by LR reaction from pCR8/GW/TOPO entry vector into the Gateway compatible pBract214 destination vector. The sequence introduced in barley is the Arabidopsis open reading frame carrying the indicated mutations. Also, the second codon (of the sequence as shown in SEQ ID NO; 2) was modified to GTT to get a Ncol site to facilitate cloning).
Immature embryos were inoculated with Agrobacterium strain AGL1 containing the over-expression vector pBract214 into which the genes of interest had been cloned. pBract214 also contains the hygromycin resistance gene to allow selection of transgenic tissues and plants. Following co-cultivation for 3 days, immature embryos were transferred to selective callus induction medium containing hygromycin to allow the selection of transformed tissue and timentin to remove Agrobacterium. After a total of 6 weeks callus induction, callus were moved to a transition medium in low light and then 2 weeks later to regeneration medium under full light. Regenerated plants were transferred to rooting tubes when shoots reached 2-3 cm in length. Plants with strong roots in hygromycin containing medium were then established in soil and grown to maturity under controlled environment conditions in order to obtain T1 seed progeny.
Barley plants (cv. Golden Promise) were routinely grown under greenhouse conditions (40-50% relative humidity, 23-24° C.) in pots containing a 1:3 vermiculite-soil mixture. Pots were grouped in trays where water was maintained approximately 0.2-1 cm above the bottom of the tray. For drought (D) stress experiments, four-week-old plants were watered with tap water for 12-d (minus D, water maintained 0.2-1 cm above the bottom of the tray) or were submitted to drought for 12-d (plus D, water withdrawal). One flag leaf per plant (10 individual plants for each genetic background, minus and plus D treatment) was weighed in order to obtain its fresh weight and dried for 16 h at 70° C. and weighed again to obtain its dry weight. After the 12 day drought period, plants that had been submitted to drought were re-watered (RW, water 1 cm above the bottom of the tray for 2-d, then water withdrawal) and weight per plant (destructive measurement to obtain above ground biomass) was obtained after 5-d (plus D, plus RW). The results obtained are described in FIGS. 9, 10 and 11.

Molecule | ABA-mediated inhibition of root growth [1] | stomatal conductance (Gst) and transpiration versus non-transformed Col [2] | stomatal aperture [3] | survival after dehydration followed by rehydration [4] | vegetative growth under non-stress conditions [5] | drought tolerance compared to non-transformed Golden promise wt plants [5] | fresh weight/leaf after drought [5] | survival and vegetative growth after drought and rewatering [5] | weight/plant after drought and rewatering [5] | stomatal conductance (Gst) versus PYL4 OE plants [2]
PYL4: AtPYL4 wild type ABA receptor polypeptide (SEQ ID NO:3, At2g38310) [reference compound] | enhanced ABA-mediated inhibition of root growth compared to non-transformed plants | lower Gst and transpiration values than non-transformed Col plants | more closed than those of non-transformed Col plants | – | – | – | – | – | – | –
PYL4H82R V97A (AtPYL H82 and V97A) (receptor, also called PYL4H82R (found combined with V97A)) MLAVHRPSSAVSDGDSVQIPMMIASFQKRFPSLSRDSTAARFHTHEVGPNQCCSAVIQEISAPISTVWSVVRRFDNPQAYKRFLKSCSVIGGDGDNAGSLRQVHVVSGLPAASSTERLDILDDERHVISFSVVGGDHRLSNYRSVTTLHPSPISGTVVVESYVVDVPPGNTKEETCDFVDVIVRCNLQSLAKIAENTAAESKKKMSL | – | – | – | ~25% | did not impair vegetative growth | enhanced drought tolerance | higher fresh weight/leaf | enhanced survival and vegetative growth | higher weight/plant | –
PYL4A194T: AtPYL4 ABA receptor mutant polypeptide with A194T substitution (SEQ ID NO. 60; nucleic acid SEQ ID NO: 55); also over-expressed in plants (protein, listed as Arabidopsis thaliana) MLAVHRPSSAVSDGDSVQIPMMIASFQKRFPSLSRDSTAARFHTHEVGPNQCCSAVIQEISAPISTVWSVVRRFDNPQAYKHFLKSCSVIGGDGDNVGSLRQVHVVSGLPAASSTERLDILDDERHVISFSVVGGDHRLSNYRSVTTLHPSPISGTVVVESYVVDVPPGNTKEETCDFVDVIVRCNLQSLAKITENTAAESKKKMSL | enhanced ABA-mediated inhibition of root growth compared to non-transformed plants | lower Gst and transpiration values than non-transformed Col plants | more closed than those of non-transformed Col plants | approximately 40% | did not impair vegetative growth | enhanced drought tolerance | higher fresh weight/leaf | enhanced survival and vegetative growth | higher weight/plant | lower Gst values than PYL4 OE plants
